Measured values reported in patent US20240400621A1, “PEPTIDES FOR METABOLIC SYNDROME” (ALPARIS, S.A. de C.V., priority 2021, published 2024).

Key:
adiponectin = test: Adiponectin levels in mice fed a high-fat diet; assay type: in vivo, mice (C57BL/6JN); settings: 12 weeks; fall induced by DAG
Protocol: (§1) For all the in vivo testing, male mice of the C57BL/6JN strain between 8 to 10 weeks of age were used, housed in groups of 3 to 5 mice per cage with food and water ad libitum in ventilated racks, and whose microbiota were unified for 4 weeks.
(§2) The mice received either 200 μL of a phosphate buffer solution (PBS) at pH 7.5 (as a vehicle), or 200 μL of the PBS solution, with each of the intragastric treatments daily for 12 weeks. They were fed either a Normal Diet (DN, Harlan, Teklad 2018SX) with 18% of the calories coming from fat, or a High-Fat Diet (DAG, Research Diets, D12491), with 60% of the calories coming from fat.
All the mice were randomly divided into five experimental groups in order to study the effect of SEQ ID NO: 3 and SEQ ID NO: 2 correctly: • Group 1—Mice with DN that received 200 μl of PBS intragastrically. • Group 2—Mice with DAG that received 200 μl of PBS intragastrically. • Group 3—Mice with DAG that received 200 μl of PBS with SEQ ID NO: 3 intragastrically at a dose of: 2.5 μg/mouse. • Group 4—Mice with DAG that received 200 μl of PBS with SEQ ID NO: 2 intragastrically at a dose of 0.6 μg/mouse (high dose). • Group 5—Mice with DAG that received 200 μl of PBS with SEQ ID NO: 2 intragastrically at a dose of 0.2 μg/mouse (low dose). […]

mice fed a high-fat diet = test: Glucose tolerance test (GTT) in mice fed a high-fat diet; assay type: in vivo, mice (C57BL/6JN); settings: 12 weeks; intragastric daily; SEQ ID NO: 3 2.5 μg/mouse, SEQ ID NO: 2 0.6 or 0.2 μg/mouse
Protocol: as §1
as §2, with “fat. […]” for “fat.”
The mice were subjected to fasting for 6 hours, and the baseline glucose values in the blood were determined using glucose test strips and a glucometer (Roche's ACCU-CHECK ACTIVE).
Next, the mice received an intraperitoneal injection of 1.8 mg of glucose per gram of body weight, and the blood glucose values were recorded at 15, 30, 60, and 120 minutes after administration.
FIGS. 19A and 19B show the area under the curve (AUC) of the glucose tolerance test of the mice, measured at week 0 and 12.

hTLR2 = molecular target: T1, hTLR2 (Homo sapiens, UniProt O60603); test: hTLR2 stimulation in HEK-Blue hTLR2 cells (NF-κβ/SEAP reporter, QUANTI-Blue); assay type: cell-based
T1 construct: expressed in transfected cells; host or cells: HEK-Blue hTLR2 cells
Protocol: The analysis of the biological activity of the protein of SEQ ID NO. 1 was performed via an in vitro Toll-like receptors (TLRs) recognition assay. The HEK-Blue hTLR2 cell line expressing the hTLR2 receptor was used, whose stimulation activates the NF-Kβ factor, which in turn induces the production of the reporter protein, secreted embryonic alkaline phosphatase (SEAP). The SEAP levels are quantified by a colorimetric method with the reagent QUANTI-Blue and correspond to hTLR2 stimulation levels. The HEK-Blue hTLR2 cell line was thawed and propagated to make a master cell bank. From this bank, a vial was thawed to check the correct growth of the cell line and the absence of mycoplasma contamination. The cells of the thawed vial were propagated to make a working cell bank and continue the subcultures to mount the activity assay of SEQ ID NO. 1. This consisted of a series of tests in which the cellular response was evaluated with different molecules to determine the most suitable conditions for the assay.
The determined EC50 for SEQ ID NO. 1 was 1147±211 ng/ml (35.1±6.4 nM).
The in vitro biological activity of SEQ ID NO:2, SEQ ID NO:3, SEQ ID NO:4, SEQ ID NO: 8, SEQ ID NO:9, SEQ ID NO: 10, SEQ ID NO:11, SEQ ID NO: 12, SEQ ID NO: 13, SEQ ID NO: 14, SEQ ID NO: 15, and SEQ ID NO:16 was tested via the stimulation of hTLR2 in the cultures of HEK-Blue hTLR2 cells in 96-well plates for 24 h. After collecting the supernatant, the plate was incubated with QUANTI-Blue at 37° C. for 1 h, and absorbance was measured at 620 nm.
To determine the EC50, the absorbance was plotted against the logarithm of protein concentration, and the data was adjusted to a dose-response sigmoidal ligand binding model with 4 parameters. The cell culture medium was used as a negative control, and PAM (synthetic triacylated lipopeptide (Pam3CSK4)) was used as a positive control.

T1 sequence (O60603 21-784): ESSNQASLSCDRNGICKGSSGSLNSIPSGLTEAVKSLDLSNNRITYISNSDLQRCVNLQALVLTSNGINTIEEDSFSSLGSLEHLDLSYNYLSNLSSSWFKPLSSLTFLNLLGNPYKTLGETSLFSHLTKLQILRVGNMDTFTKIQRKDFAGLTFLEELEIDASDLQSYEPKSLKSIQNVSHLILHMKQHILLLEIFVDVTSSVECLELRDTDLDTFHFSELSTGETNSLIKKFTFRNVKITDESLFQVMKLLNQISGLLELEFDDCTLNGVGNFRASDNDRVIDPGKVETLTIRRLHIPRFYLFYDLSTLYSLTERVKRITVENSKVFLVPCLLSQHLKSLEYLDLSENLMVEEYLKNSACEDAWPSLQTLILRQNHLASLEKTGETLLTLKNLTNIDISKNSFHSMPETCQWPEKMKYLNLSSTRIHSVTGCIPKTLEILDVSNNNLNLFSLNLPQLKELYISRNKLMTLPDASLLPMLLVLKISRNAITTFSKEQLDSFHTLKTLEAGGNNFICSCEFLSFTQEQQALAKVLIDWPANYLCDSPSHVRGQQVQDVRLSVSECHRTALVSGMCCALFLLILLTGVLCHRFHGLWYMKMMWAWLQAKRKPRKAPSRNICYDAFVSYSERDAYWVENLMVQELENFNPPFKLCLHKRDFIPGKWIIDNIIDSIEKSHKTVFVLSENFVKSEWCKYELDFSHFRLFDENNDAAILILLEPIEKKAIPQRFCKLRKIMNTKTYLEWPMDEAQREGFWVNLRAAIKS

concentration from which hTLR2 is (significantly) stimulated (hTLR2; HEK-Blue hTLR2 cells, 24 h): 8 nM
relative response compared to PAM (hTLR2; from 229 nM, PAM (Pam3CSK4) positive control): 107%
B1: peptide SEQ ID NO: 3 (carboxyl terminal domain of SEQ ID NO: 1) (peptide)
chain: QLPIETPANNPEESDEADQAPWTPMPLEIAFQGDRESVLKAMNAITGMQDYLFTVNSIRIRNERMMPPPIANPAAAKPAAAQPATGAASLTPADEAAAPAAPAIQQVIKPYMGKEQVFVQVSLNLVHFNQPKAQEPSED
adiponectin in circulation (adiponectin): tendency to prevent a fall of adiponectin
glucose tolerance (AUC of GTT) versus DAG group (mice fed a high-fat diet): improved glucose tolerance
